Source: article PMC4358365, “Conserved mechanisms of microtubule-stimulated ADP release, ATP binding, and force generation in transport kinesins” (eLife, 2014)

Target: paclitaxel-stabilised microtubule polymerised from bovine αβ-tubulin (bovine) (UniProt Q6B856)
Chain of UniProt Q6B856 (Q6B856 whole entry, looked up): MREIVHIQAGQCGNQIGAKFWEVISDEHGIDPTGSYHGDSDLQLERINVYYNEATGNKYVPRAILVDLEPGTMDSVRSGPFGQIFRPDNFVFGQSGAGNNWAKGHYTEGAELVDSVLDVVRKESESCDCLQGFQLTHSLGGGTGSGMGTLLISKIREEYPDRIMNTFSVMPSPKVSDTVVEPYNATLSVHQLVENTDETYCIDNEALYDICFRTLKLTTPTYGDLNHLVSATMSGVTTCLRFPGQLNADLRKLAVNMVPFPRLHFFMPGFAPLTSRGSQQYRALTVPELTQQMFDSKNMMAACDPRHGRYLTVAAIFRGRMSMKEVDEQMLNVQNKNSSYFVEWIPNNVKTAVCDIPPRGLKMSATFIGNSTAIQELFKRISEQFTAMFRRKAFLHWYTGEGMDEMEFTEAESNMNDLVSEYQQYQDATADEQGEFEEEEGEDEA

Molecule: human kinesin-1 (Kin1) motor domain construct (Kif5A, residues 1–340) (from UniProt Q12840 1-340) (domain or fragment)
- K (0.5 MT) of the steady-state MT-activated ATPase (10 nM motor domain, paclitaxel-stabilised MTs, 20°C): 12.7 µM

B1: human kinesin-3 (Kin3) motor domain construct (Kif1A, residues 1–361) (domain or fragment)
chain: MAGASVKVAVRVRPFNSREMSRDSKCIIQMSGSTTTIVNPKQPKETPKSFSFDYSYWSHTSPEDINYASQKQVYRDIGEEMLQHAFEGYNVCIFAYGQTGAGKSYTMMGKQEKDQQGIIPQLCEDLFSRINDTTNDNMSYSVEVSYMEIYCERVRDLLNPKNKGNLRVREHPLLGPYVEDLSKLAVTSYNDIQDLMDSGNKARTVAATNMNETSSRSHAVFNIIFTQKRHDAETNITTEKVSKISLVDLAGSERADSTGAKGTRLKEGANINKSLTTLGKVISALAEMDSGPNKNKKKKKTDFIPYRDSVLTWLLRENLGGNSRTAMVAALSPADINYDETLSTLRYADRAKQIRCNAVIN
- K (0.5 MT) of the steady-state MT-activated ATPase (10 nM motor domain, paclitaxel-stabilised MTs, 20°C): 0.0537 µM
